# Measured values as given in ChEMBL document CHEMBL1157628, “Carbonic anhydrase activators. The first activation study of a coral secretory isoform with amino acids and amines” (Bioorg Med Chem, 2010).
# B1: Carbonic anhydrase 6 (Homo sapiens), P23280 (protein)
# chain: MRALVLLLSLFLLGGQAQHVSDWTYSEGALDEAHWPQHYPACGGQRQSPINLQRTKVRYNPSLKGLNMTGYETQAGEFPMVNNGHTVQISLPSTMRMTVADGTVYIAQQMHFHWGGASSEISGSEHTVDGIRHVIEIHIVHYNSKYKSYDIAQDAPDGLAVLAAFVEVKNYPENTYYSNFISHLANIKYPGQRTTLTGLDVQDMLPRNLQHYYTYHGSLTTPPCTENVHWFVLADFVKLSRTQVWKLENSLLDHRNKTIHNDYRRTQPLNHRVVESNFPNQEYTLGSEFQFYLHKIEEILDYLRRALN
# Columns and labels:
# [1] = substrate: N[C@H](Cc1c[nH]c2ccccc12)C(=O)O; test: (§1) Activity of human full length CA6 at 10 uM by stopped flow CO2 hydration assay
# [2] = substrate: N[C@@H](Cc1c[nH]c2ccccc12)C(=O)O; test: as §1
protein,measurement,setting,value
B1,kcat,[1],4.8 ×10⁵ /s
same,kcat,[2],9.5 ×10⁵ /s
